assay: protease stability score; higher = more stable; yeast display proteolysis, trypsin and chymotrypsin;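 also: relative to predicted unfolded state with 0 unfolded-like and 1 meaning tenfold more protease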

Sequence	protease stability score
DESERIILHIANEFLHLYATGDEDRLRELADPHVRLDVDGQDVHGRELTQKWWKRFVEEIRIRDLHLKDYYIIGEKYHIEGHTRLHIGDKHVETEIRIHIVVVNGKIKSESFHLR	0.541
SEDEELMKKVFEIFLNHLETGDWRELEKLLDPHAQLNIDGRDYHGWDKITEEMRKLGMTMHSELEHVRFQGDKIDLKGYVKVRIGDKEIRRSTRYVALKVDGRWEERSIILL	1.41
DEREEESKRATEKVTRDIHTGDEDLHRHLLDPNAKLVFNGREFVGREEVEKILKWFLDRAGVDKINMTIHDVRVVDGRIKLDGRNNINGVEYTVIWISEKYNGRWFDRMIIFS	0.493
DEREKDVEHWFQRLIEAQITGDEEEFDELADPNVLIEINGRELHGRDDFHKYLKRVDHFEIQHFRHHHRHIFDGKVYFNGHSELHVTVGDKRFRYEDEIHHISLKIDGRWILKSVHFA	0.635
HETEQRLEHHIKLWFKAFMTGDEELLKFLADPNVRVDDDVNGVRFLNIGMEKLAEWLRKWLRRVPNVKFDLEDVKIFENRTHIDSRLDIDGKEIELHIHLILINGRIQEIRFSVK	1.49
HEEHKHVKELAEMLIEWFLTGDEETTLDMADPDVRIDINGVDKIGRETVVEFKKRQHRDLGWDNIRFRPTHINAFDGRINIEGVIIVNGVTFKTEFRFEVINGRLKLDKWIVR	0.661
DKEKEDAVRIVEHWIEALLTGDEHELKKYLDPEVRVEINGRDIHGMHLWSEHFKELRHEELHIHIRTVHVFDGKMSVEGELRIVGEVDGRRTDIIYHTEIEIEKVDGRWHIHHIHLR	-0.195
SEEEKILDDILKLFLDDVRTGNEDSLHRLADPHVRQDYNGVELHGMELVVHWLVELRVEDWRHKDSDSAENRVHLNGIVDGNINGKKQRREIILVIRKVDGRWFLEHNIVI	1.23
DELEKAIHHILKELLEARLTGDWQMVIDRFDPHVLLRVGDKEFHGREIIRHLHEQFDHVEHVDLRLENHRYQGNKIHLDIKTTMDVRVGEKRVELRTESRIILLKVNGRWIIESVEIN	2.02
SEDERDARHYLKEFEHAIETGDEHRLDELLDPNVKIDIDGVEHHGREWFRTLEHHIRVHSRVELKHIEVYGNFIVMDGHLHREIRINGRRIETHSRTIIIMRKVNGRWLVSELRFR	1.52
SEDEEESRHAYQKLVRDLETGDEKKTEDNVDPNVRLEQGDKTLHGRERFVHWYSRLGAKHFHIHSFEAQGDKIHIDGTINVNGVTHRVEYISLKVNGRWLMHQVIIR	0.662
DESEELSRIASHLFLRMMHTGNEEEISKLADPNTRLDVNGKHFHGMELIIHFLHELRRKLGVKYIRLKSVHITIVNGKVDLELEGDLLQGDFEIPSHIRNIALKVDGKWFIHRQEFRFE	1.32
DESEEEMKKAFKDLVDSLLTGDEHLLRTFADPNMRLRIGDKTFHGRETYSEIFLKEWKKLGIKHYQVTIHHLEVQGDKIHVDTRVNVHIGDWTIHRETRLHITKVNGQWILRQEDVD	0.416
DEHDHILKRLSEELLHMMETGDEDALAELFDPHARMEYNGQEIHGRRDVERIRREILEKLGVDKIHTEVKEERFVGEKLEVHTHLHVDGVHFTVRIHWVKFNGRWVIRTLHIE	1.38
TDEEELAERLARIMIHLFLTGNEEIMSKLLDPDVRSWVNGQEFHGREEEAKVVRKMIEEWRFHDMHIHDVHVINGRLHVDSRVDNRVGDKTIDIRTELRFDVVNGRLKILEWHFT	0.341
SHHEEHLHEMLRLILEAWETGDEDFLEELADPRVQLIVNGKDIHGRHVFRTMLRTHIEQMRIKRVTPRRVRNYDGRVESDIEVDGIIDGQRRKYRTTWVVEIIDGRVESLSLHFI	0.723
DDLHRNMKKVADLFIQVWLTGDFEELMHLFDPNVRLKVNGVEMHGRDDFAKFVKEHRERIDHMHFRLDELRIYGDKIVIHGTLHLHQGEKDWHHEVHIHLLVIDGVIRTVEEEER	2.08
TEEDHELRLAHEELHRDLDTGDWESFMRYMDPRARVHYNGREFIGREFAVKFYLDVLNKYKGLTFRIHDIRIFDGVLFVRVKFHFDGQWLHSSEVALKVNGQWHNHHVSFI	0.611
DETEDTSRHLLELFAHALRTGDEESSDRLLDPHVRIDINGKELIGRERFRELWEEMRIEWVKIRDVSIINGQVHVNGEMLMVYDGRTYTIETRIIILKVDGRWVIEHMKIG	1.43
NEKEEESKRFIELFMELIVTGNEEVLYKLADPTVQWRADVDGQEINLHGWEHIHDEINKFPNITLELEEREIQGDKVDIRTRLHIGDKTRDTRVIIIVINGRVKQIHIEIR	2.28
SEHETEVMRLAEITVKSFLTGDEDTMHHLLDPHVRSDVNGRHHIGRERWLKVVEDMLRHLRLTTIEIHHVDAINGRLHTDTRVNVHINGQEVILETELIIVIVDGVVKEVHWVVK	0.994
DEEEEWATEAWKLHLHHHRTGDERMIHELLDPNMRLDFDGVELHGRKLVKEFIERTLRRFDVIDEYDHSDVRIQGDKVDLIQVVRGEIDGRRTHVNQRLIMIKIDGRWVVKHVRLQ	1.23
DEIEQIMEYLAHVHIEFIITGDEDTLEHLADPHVKIEVNGQSLVGWKHWSRFLKKLGWKRDMRVRHIHAQGDKIHVDGHLVNDFDGREFRYKTHLEIKVVDGKLKVIRIDQE	1.41
SEEEEQSRIAIELVKEVHDTGDEHLLKRLMDPNAKVDIGDKTHHGREIFSHLVHRWFHTLGVDHVKIHDLDFQGDFMIIHMVEVIGDKHVHVHIYTLKVNGRWYIRHLRVERR	0.967
SEDDEWLHNFIERLLHTILTGDEHIFSELADPNVRLDIGDKELHGWHLIVRHYIDEFRQFKGVRVHIRIRRFTQIGDKVHYDGELIFVIGDKTIIRELHLVVVKIDGRWKLEHFEIR	2.74

Sequence	protease stability score
DEDMELVLKWVHEFAEMFETGNEHELLRMLDPHVRLEYGEKEIHGREDITRFWEEKIRKLGIKHIRVHIRDARIQGEKLHLDTELKLDYNGKTDHERYIIIIIKINGKWSIKSFQVE	1.55
SEEEHHARYMTQLFLHALETGDWHELRRMADPNMRLRVRVGDKHWHYHGWEHLHELLESFLKRVDHVEFIERSIHVQGEKSRFRGDVREHVGDKEHTHHIILILDIVNGKIHRIIIINE	1.37
DEFHHWYERVIQEFDHAVETGNEHRIRELLDPNVRIIIDGQDLHGREDMIHLISEIRVSITDRRERSFRPVGDKINLLMRVDQQVFVDGQTEQVDTEVRWIIIKVNGVWLIRRIEVI	1.47
AEQHEQAREFLRNWLEAYHTGDEDLLRSMFDPNVRLHVDGRVIIGREDIIRERLHFLENHGITFHFRIQDMSVQGEKVIFDVEFHYRYNGQDYHKKVWLFVEKINGRWFMTQININ	2.19
DEDTEQLEWILKLHLEISRTGDEHSEHHMVDPNTRIEVGDKELHGREEIVKWFAHIRIDHIDIKRYHIFNGRVRIDGRVEGNVDGRETTMRVIFLSDKFNGRWRHRSVIVR	1.53
DKEDEDIKHLVDRIIHFWETGDFESLLKNVDPNARVEEIFNGKKYHSHGREEFERTLQEWLDRYKNVTIHIREVRMFNGVAIIHAELLIGDKRHEVHLHWFIYDGVLRHVRIQFE	1.49
SDEEERTRTAIEQLIELRLTGDEEMLHKLVDPHYRLHFIVDGRDLDFIGWRDFQRIFHEETKKFKNMRIEWRHVDIVNGVVTVHIELKIGDKRDEIDLFFFKINGRWILKSVEVHRR	1.47
DEEEKLLEKMFKDLIRDLLTGDEESFHKLADPNMRLNQGDFQIHGWEDVQRVLRWRMHEMRIHHLHIHHLHFFDGKLHIDGESDIEFNGVRQNRRVEILIKKVDGKWELKEVIIR	2.28
NEREKLVLDLAMRWFEAWLTGDEHLLHLLADPNVRFIYGDKHLIGMDELHRFLREIRIISRDRHFEDKRVIGDKVELDVRLRGEVDFNGRRLDIDLTVHIESHIINGKQHTSRMETI	1.07
TDVEEQVHVAIELHLRTLLTGDEHLSEKLADPHVRILIDGQDYHGRTEWVKWIHTFHKRVDHHQIDVTTLSVQGDKIRIHFELKLHVNGVDLRFHILLIIEKYNGVWIMSEVHIS	1.67
SEEDHLVDLMLKFLIESLKTGDEKTLRKLVDPNDKVVFNGRELHGRRALEYWLERFDHAHRFHIEDFTVQGDYMIVRVKLDGHVDGVRMETTIHLILVKYDGRWFVKMTIFN	1.26
SEHEEHIKHLAEEWIRLVLTGNEEIIDHLFDPNVRVEIDGREMIGREKMNEWMRHVLRHWRTHIVIRRMTAIGDKAHSDGELILHVGDKTIRTKVHFHLVIIDGRIHEVSVDIR	1.58
DEDERHFEIWFKLFIHLYLTGNEETLRHLADPNVRTVYNGRDFHGWDEMVRIHHEMFDFYKGLRVEKVNVESVEIFDGRVLILLRIRVLVNGRTTDDHIHVEAKKIDGQWIIESVDFR	1.65
DEHEHMTELAHRIIMKTWETGDEEEQHRMFDPHARLIIDGKNIHGREQIQREMKRFSEEIRLRDATIHRVEIQGNKVISDWRLRIDVDGREVHFESHVIIRKVNGRWRIDHLILN	1.21
SEEHEEAEHWVRLFIEFMLTGDFDEYRQLMDPNDYIEVGDKSLIGMENWHHLLNRVKNLTIRVKRVRVRVVNGRIHVEMDVRDIINGQEVETRIEMVAVKVNGRWLLKTVHLERE	1.74
HEDDHQAERITHITMHAILTGDWRRMEELLDPHYRIEFENHENIGRERVNKVLIDLGIRNEIEIKRIRFQGDFVEIDGKLKIDVGDKHIEIKVRLFYVKINGRWFHHHVDLR	0.835
SEEDELAKYVIRLWVEEFRTGDEESMFRLLDPHVLVQQGDKEYHGRERWEDFIRKLGLQNVRVEVHRVTIQGEFIHVDGIIEIGDKRTRYILYFEKFNGRWINKELRIK	1.48
LEEEEETKEMNDKMRHVMETGDEDSFRKLADPHVRVDINGREFHGMDNAAEIMSHLRIHKFHVHDTRNINGKVQVESRLTRIIDGKKQHVRTEWIIVKIDGQWIFREWIVK	0.58
SENKRVAVEWVRDFLRALRTGDEDRVRQLADPHVRIDFNGRDHHGRHFLVRMLREIRIHDVRIRDVDVQGDFLITELEIDVEIDGKRDTLRMNIIFEKVDGRWMVSEVQFE	1.5
EEDEHFAESYAEIMIHSWITGNEDLFEHLADPNWRLRVGDKEFHGREEATEFLIEFYERIDHFEIHIHDMKNIGEKLFIDGELNIHVNGRTIRHHTEIVIYTINGKVKSEEVRIK	1.95
DEVIEELERFHRTYQHAVHTGDEETHADLMDPNVRIHIGDKHIHGREWLIELVHRLGFKHSKEHWIIRRYDLQGNKVDEDGEVKRILNINGVLEHEERRVRIIILKIDGKWIIHSMHIR	0.433
SEEDKYAKLVIRLLEEMIRTGDEESSIRLADPHARVNINGKDMHGREEFTKWIRQFDVVRDFELKDSDYQGDFIFVDGVLDGEVGDKRMRTKVEIIIFKFNGKWRTKEVWVR	1.38
SEDEKMIEDASELHIDYFLTGDEESMEKLADPSVKLEQGDKDQHGREQHSKWYKELREELGIKHMRVDDVKFRLINGRLTLLIRGTLHVGDKSWDVHFILISEKIDGKWVIRNMIISYS	1.32
DETHEEHNRFAEEYVHALHTGDEDRLRELMDPNVRFILIIDGKEVRLHGWELLLRVIREFWERFKNIRIFIRDIDLQGEKIRLETEVNVDGVDEHWRINMVVVNGRIKSLIIEQR	2.32
HEDDELLRQNVKVLLDMVETGDEHTLENMLDPHVRFEAENHHHHGRENLIRALKELLTRLGVKHWRSFEVERIDIQGDFIFLDTVFIMEVDGRKRKIKIHIVARKINGRWLIESIRLD	1.48

— the NTF2 design screens of Basanta et al. (2020)
